From PMC4960544, “Production of full-length soluble Plasmodium falciparum RH5 protein vaccine using a Drosophila melanogaster Schneider 2 stable cell line system” (Scientific Reports, 2016)

Experiments:
[1] = molecular target: basigin (Homo sapiens) (UniProt P35613); experiment: SPR; conditions: cited from earlier work
[2] = single-cycle GIA with purified rabbit total IgG; conditions: glycan lost; control: v5.0 (native sequons, glycosylated)
[3] = rabbit serum anti-PfRH5 v2.0 IgG ELISA; conditions: glycan lost; control: v5.0 (native sequons, glycosylated)
[4] = GIA versus anti-PfRH5 IgG concentration, fitted curves; conditions: glycan lost; control: v5.0 (native sequons, glycosylated)

Sequence of basigin (Homo sapiens) (P35613 22-325): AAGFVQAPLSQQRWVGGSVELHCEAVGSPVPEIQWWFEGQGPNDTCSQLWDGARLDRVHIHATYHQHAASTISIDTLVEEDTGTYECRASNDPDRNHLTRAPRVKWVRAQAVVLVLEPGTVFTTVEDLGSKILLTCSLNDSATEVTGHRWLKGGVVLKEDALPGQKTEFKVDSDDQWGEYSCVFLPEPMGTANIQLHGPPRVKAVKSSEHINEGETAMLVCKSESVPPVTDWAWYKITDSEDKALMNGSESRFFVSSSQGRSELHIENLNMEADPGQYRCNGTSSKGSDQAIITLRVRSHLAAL

Molecule | Kd [1] [µM] | other: immunogenicity (growth inhibition by induced IgG), EC50 [2] | other: immunogenicity, other: median PfRH5-specific IgG [3] | other: immunogenicity (antibody quality, GIA per antigen-specific IgG), EC50 [4]
PfRH5 (from UniProt Q8IFM5) | 1.5 |  |  | 
PfRH5 (reticulocyte-binding protein homolog 5): v3.0 (four Asn to Gln) (protein) parent chain: MIRIKKKLILTIIYIHLFILNRLSFENAIKKTKNQENNLTLLPIKSTEEEKDDIKNGKDIKKEIDNDKENIKTNNAKDHSTYIKSYLNTNVNDGLKYLFIPSHNSFIKKYSVFNQINDGMLLNEKNDVKNNEDYKNVDYKNVNFLQYHFKELSNYNIANSIDILQEKEGHLDFVIIPHYTFLDYYKHLSYNSIYHKSSTYGKCIAVDAFIKKINETYDKVKSKCNDIKNDLIATIKKLEHPYDINNKNDDSYRYDISEEIDDKSEETDDETEEVEDSIQDTDSNHTPSNKKKNDLMNRTFKKMMDEYNTKKKKLIKCIKNHENDFNKICMDMKNYGTNLFEQLSCYNNNFCNTNGIRYHYDEYIHKLILSVKSKNLNKDLSDMTNILQQSELLLTNLNKKMGSYIYIDTIKFIHKEMKHIFNRIEYHTKIINDKTKIIQDKIKLNIWRTFQKDELLKRILDMSNEYSLFITSDHLRQMLYNTFYSKEKHLNNIFHHLIYVLQMKFNDVPIKMEYFQTYKKNKPLTQ |  | increases, 8.4 vs >10 | increases, 535 vs 40 | 
PfRH5 (reticulocyte-binding protein homolog 5): v4.0 (N38Q and N214Q) (protein) parent chain: MIRIKKKLILTIIYIHLFILNRLSFENAIKKTKNQENNLTLLPIKSTEEEKDDIKNGKDIKKEIDNDKENIKTNNAKDHSTYIKSYLNTNVNDGLKYLFIPSHNSFIKKYSVFNQINDGMLLNEKNDVKNNEDYKNVDYKNVNFLQYHFKELSNYNIANSIDILQEKEGHLDFVIIPHYTFLDYYKHLSYNSIYHKSSTYGKCIAVDAFIKKINETYDKVKSKCNDIKNDLIATIKKLEHPYDINNKNDDSYRYDISEEIDDKSEETDDETEEVEDSIQDTDSNHTPSNKKKNDLMNRTFKKMMDEYNTKKKKLIKCIKNHENDFNKICMDMKNYGTNLFEQLSCYNNNFCNTNGIRYHYDEYIHKLILSVKSKNLNKDLSDMTNILQQSELLLTNLNKKMGSYIYIDTIKFIHKEMKHIFNRIEYHTKIINDKTKIIQDKIKLNIWRTFQKDELLKRILDMSNEYSLFITSDHLRQMLYNTFYSKEKHLNNIFHHLIYVLQMKFNDVPIKMEYFQTYKKNKPLTQ |  | no change, >10 vs >10 | increases, 116 vs 40 | 
PfRH5 (reticulocyte-binding protein homolog 5): v2.0 (four Thr to Ala) (protein) parent chain: MIRIKKKLILTIIYIHLFILNRLSFENAIKKTKNQENNLTLLPIKSTEEEKDDIKNGKDIKKEIDNDKENIKTNNAKDHSTYIKSYLNTNVNDGLKYLFIPSHNSFIKKYSVFNQINDGMLLNEKNDVKNNEDYKNVDYKNVNFLQYHFKELSNYNIANSIDILQEKEGHLDFVIIPHYTFLDYYKHLSYNSIYHKSSTYGKCIAVDAFIKKINETYDKVKSKCNDIKNDLIATIKKLEHPYDINNKNDDSYRYDISEEIDDKSEETDDETEEVEDSIQDTDSNHTPSNKKKNDLMNRTFKKMMDEYNTKKKKLIKCIKNHENDFNKICMDMKNYGTNLFEQLSCYNNNFCNTNGIRYHYDEYIHKLILSVKSKNLNKDLSDMTNILQQSELLLTNLNKKMGSYIYIDTIKFIHKEMKHIFNRIEYHTKIINDKTKIIQDKIKLNIWRTFQKDELLKRILDMSNEYSLFITSDHLRQMLYNTFYSKEKHLNNIFHHLIYVLQMKFNDVPIKMEYFQTYKKNKPLTQ |  | increases, 4 vs >10 | increases, 278 vs 40 | no change, median EC50 of 129 μg/mL (95% CI 80.7–186.7 μg/mL) anti-PfRH5 IgG
